Assays:
[1] = target: eps15_human EPS15 (UniProt P42566)
[2] = target: ima3_human KPNA4 (UniProt O00629)
[3] = target: ima3_human KPNA4 (UniProt O00629); remark: listed apart in the source
[4] = target: terf1_human TERF1 (UniProt P54274)
[5] = target: G3BP2 (UniProt Q9UN86)
[6] = target: oxsr1_human OXSR1 (UniProt O95747)
[7] = target: src_human SRC (UniProt P12931)

Sequence of oxsr1_human OXSR1 (O95747 whole entry, looked up): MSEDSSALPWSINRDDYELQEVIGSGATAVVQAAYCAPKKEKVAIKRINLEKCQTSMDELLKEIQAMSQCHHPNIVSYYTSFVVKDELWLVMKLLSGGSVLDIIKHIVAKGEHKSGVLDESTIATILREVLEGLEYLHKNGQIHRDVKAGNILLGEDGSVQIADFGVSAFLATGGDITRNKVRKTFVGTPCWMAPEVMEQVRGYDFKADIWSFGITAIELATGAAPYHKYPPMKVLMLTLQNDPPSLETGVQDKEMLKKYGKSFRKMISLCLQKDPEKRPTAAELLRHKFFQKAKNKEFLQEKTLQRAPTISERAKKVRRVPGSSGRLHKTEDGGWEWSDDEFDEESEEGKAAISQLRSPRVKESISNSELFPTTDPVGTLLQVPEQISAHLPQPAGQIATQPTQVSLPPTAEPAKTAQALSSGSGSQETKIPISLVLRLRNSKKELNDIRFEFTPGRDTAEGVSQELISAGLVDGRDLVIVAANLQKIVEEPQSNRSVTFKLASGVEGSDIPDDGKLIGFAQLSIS
Sequence of ima3_human KPNA4 (O00629 whole entry): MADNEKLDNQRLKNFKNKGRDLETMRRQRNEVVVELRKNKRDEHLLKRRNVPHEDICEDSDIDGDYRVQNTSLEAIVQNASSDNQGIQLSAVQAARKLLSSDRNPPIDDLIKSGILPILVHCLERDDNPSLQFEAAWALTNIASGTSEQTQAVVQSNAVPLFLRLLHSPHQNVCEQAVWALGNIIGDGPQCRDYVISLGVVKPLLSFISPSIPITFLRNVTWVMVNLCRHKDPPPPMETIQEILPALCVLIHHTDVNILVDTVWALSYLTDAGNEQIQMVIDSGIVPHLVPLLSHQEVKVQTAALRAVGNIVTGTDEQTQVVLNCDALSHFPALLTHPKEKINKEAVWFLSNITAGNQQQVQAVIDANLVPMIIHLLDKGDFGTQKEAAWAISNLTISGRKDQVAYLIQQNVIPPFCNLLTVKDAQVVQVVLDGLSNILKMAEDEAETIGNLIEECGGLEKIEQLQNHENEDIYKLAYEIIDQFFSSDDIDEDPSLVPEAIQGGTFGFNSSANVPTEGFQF
Sequence of ADP-ribosylation factor-like protein 13B (Homo sapiens), Q3SXY8 N255K (Q3SXY8 whole entry N255K): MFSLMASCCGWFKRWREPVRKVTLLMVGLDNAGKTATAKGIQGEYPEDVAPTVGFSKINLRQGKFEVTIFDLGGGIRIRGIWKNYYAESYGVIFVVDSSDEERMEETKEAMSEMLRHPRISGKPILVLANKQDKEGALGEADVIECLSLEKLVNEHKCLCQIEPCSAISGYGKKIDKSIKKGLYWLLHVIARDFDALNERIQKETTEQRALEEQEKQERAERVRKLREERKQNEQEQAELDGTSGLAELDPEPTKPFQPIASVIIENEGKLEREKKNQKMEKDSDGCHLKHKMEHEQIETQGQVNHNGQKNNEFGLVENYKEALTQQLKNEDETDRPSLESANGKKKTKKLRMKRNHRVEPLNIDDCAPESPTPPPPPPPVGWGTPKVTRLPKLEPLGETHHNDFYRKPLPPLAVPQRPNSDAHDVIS
Sequence of G3BP2 (Q9UN86 whole entry): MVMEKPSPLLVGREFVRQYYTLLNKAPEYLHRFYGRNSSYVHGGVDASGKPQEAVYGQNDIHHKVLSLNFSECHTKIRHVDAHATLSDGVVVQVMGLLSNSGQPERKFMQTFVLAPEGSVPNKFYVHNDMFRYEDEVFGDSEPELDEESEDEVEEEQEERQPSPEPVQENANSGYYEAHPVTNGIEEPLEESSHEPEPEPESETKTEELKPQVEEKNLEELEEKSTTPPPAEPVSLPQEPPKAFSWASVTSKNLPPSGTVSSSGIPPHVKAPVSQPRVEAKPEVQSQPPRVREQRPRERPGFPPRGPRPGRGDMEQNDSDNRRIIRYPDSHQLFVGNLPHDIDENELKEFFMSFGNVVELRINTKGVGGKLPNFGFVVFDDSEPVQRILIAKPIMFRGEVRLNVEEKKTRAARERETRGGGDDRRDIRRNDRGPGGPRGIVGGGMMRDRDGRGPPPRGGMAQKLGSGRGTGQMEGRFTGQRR
Sequence of Endothelial PAS domain-containing protein 1 (Homo sapiens), Q99814 F540L (Q99814 whole entry F540L, the tested form may be a part): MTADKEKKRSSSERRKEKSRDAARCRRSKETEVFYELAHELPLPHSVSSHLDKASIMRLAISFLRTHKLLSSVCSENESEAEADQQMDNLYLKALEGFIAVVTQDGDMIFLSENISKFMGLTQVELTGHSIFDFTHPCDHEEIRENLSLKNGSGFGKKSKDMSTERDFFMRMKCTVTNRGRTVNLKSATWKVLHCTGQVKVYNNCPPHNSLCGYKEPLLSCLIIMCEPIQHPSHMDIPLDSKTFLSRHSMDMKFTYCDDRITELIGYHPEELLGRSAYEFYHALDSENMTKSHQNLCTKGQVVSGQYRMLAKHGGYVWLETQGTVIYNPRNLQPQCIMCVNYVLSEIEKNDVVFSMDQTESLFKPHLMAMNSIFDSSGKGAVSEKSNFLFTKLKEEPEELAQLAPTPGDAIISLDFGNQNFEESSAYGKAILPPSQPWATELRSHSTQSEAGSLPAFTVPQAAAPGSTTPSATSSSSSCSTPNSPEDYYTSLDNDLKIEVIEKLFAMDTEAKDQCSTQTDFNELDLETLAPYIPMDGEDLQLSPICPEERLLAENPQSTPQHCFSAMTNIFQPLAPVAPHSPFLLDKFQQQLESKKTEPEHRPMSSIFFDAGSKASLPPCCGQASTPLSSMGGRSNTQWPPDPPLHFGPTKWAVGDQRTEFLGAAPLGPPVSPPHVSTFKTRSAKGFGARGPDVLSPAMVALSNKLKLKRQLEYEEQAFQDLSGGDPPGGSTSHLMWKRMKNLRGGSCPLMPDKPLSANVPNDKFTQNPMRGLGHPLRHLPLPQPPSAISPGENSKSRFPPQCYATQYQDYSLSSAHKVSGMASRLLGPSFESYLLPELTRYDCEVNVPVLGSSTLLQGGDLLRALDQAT
Sequence of terf1_human TERF1 (P54274 whole entry): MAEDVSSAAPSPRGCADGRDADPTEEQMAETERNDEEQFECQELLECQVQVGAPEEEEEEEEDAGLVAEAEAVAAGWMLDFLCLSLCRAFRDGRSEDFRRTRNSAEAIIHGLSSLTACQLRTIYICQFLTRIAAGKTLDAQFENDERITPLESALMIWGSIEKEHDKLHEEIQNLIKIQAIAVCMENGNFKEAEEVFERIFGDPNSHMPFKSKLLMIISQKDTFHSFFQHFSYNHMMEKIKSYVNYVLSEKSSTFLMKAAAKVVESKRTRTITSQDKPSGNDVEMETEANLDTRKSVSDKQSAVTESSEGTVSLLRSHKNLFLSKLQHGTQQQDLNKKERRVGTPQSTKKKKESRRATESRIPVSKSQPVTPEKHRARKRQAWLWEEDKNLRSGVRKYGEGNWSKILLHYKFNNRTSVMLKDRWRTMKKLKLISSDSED
Sequence of eps15_human EPS15 (P42566 whole entry): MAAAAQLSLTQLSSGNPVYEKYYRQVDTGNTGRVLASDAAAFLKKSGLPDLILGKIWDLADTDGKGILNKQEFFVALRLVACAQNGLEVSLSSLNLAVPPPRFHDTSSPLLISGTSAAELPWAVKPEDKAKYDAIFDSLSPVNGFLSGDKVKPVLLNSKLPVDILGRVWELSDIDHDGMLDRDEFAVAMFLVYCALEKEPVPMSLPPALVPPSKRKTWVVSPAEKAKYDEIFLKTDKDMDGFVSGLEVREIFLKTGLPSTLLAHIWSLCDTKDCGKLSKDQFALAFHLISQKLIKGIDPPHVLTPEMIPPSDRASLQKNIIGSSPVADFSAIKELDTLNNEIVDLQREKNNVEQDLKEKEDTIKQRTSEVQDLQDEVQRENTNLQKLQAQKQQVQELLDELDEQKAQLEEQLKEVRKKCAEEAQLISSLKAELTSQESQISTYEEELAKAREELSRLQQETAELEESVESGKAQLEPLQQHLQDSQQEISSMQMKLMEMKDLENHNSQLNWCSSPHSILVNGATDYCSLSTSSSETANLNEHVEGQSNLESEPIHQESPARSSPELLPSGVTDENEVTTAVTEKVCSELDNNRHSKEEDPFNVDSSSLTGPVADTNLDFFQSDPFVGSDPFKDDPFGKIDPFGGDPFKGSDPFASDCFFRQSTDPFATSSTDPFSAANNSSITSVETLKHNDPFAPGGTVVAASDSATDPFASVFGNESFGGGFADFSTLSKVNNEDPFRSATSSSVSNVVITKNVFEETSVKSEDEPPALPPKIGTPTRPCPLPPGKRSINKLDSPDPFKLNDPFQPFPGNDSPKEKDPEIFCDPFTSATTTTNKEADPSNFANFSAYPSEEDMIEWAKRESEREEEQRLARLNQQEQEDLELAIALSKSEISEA

For “ADP-ribosylation factor-like protein 13B (Homo sapiens), Q3SXY8 N255K”, the “effect of a mutation on the interaction” value [1] was “decreasing interaction strength”.
In the case of “CREB-binding protein (Homo sapiens), Q92793 K13E”, the “effect of a mutation on the interaction” value [2] is reported as “causing an interaction” and the “effect of a mutation on the interaction” value [3] is reported as “disrupting interaction strength”.
“Endothelial PAS domain-containing protein 1 (Homo sapiens), Q99814 F540L” was tested, and the “effect of a mutation on the interaction” value [4] was “decreasing interaction strength”.
“Histone-lysine N-methyltransferase, H3 lysine-36 specific (Homo sapiens), Q96L73 L1797P” was tested, and the “effect of a mutation on the interaction” value [5] was “decreasing interaction strength”.
Titin (Homo sapiens), Q8WZ42 I34306N was tested, and the “effect of a mutation on the interaction” value [6] was “decreasing interaction strength”.
Titin (Homo sapiens), Q8WZ42 I34306S was tested, and the “effect of a mutation on the interaction” value [6] was “decreasing interaction strength”.
In the case of Titin (Homo sapiens), Q8WZ42 I34306T, the “effect of a mutation on the interaction” value [6] is reported as “decreasing interaction strength”.
With “Voltage-dependent T-type calcium channel subunit alpha-1H (Homo sapiens), O95180 P684H” the “effect of a mutation on the interaction” value [7] was “decreasing interaction strength”.
In the case of “Voltage-dependent T-type calcium channel subunit alpha-1H (Homo sapiens), O95180 P684R”, the “effect of a mutation on the interaction” value [7] is reported as “decreasing interaction strength”.

— IntAct's records for PubMed 39009827
